# B1: full-length myelin protein zero (P0) from bovine peripheral myelin (natural protein, UniProt P10522 29-248, looked up)
# chain: AIVVYTDKEVHGAVGSQVTLYCSFWSSEWVSDDLSFTWRYQPEGGRDAISIFHYAKGQPYIDEVGTFKERIQWVGDPHRKDGSIVIHNLDYGDNGTFTCDVKNPPDIVGKTSQVTLYVFEKVPTRYGVVLGAVIGGVLGVVLLALLLFYLIRYCWLRRQAALQRRLSAMEKGKLHKTAKDASKRGRQTPVLYAMLDHSRSTKAASEKKTKGLGESRKDKK
# modifications: N-linked glycan structures belonging to hybrid types
# notes: myelin protein zero (P0, MPZ), bovine, native protein from the raft fraction of peripheral myelin; Oligomeric state depended on detergent: tetramer in DPC, dimer in LDAO; also called MPZ; full-length P0
# Tests used:
# [1] = target: the molecule itself; experiment: SEC-MALS; full-length P0 in 0.1% DPC micelles, Superdex 200, 250 mM sodium phosphate pH 8.0, 1 mM EDTA; protein conjugate analysis
# [2] = target: the molecule itself; experiment: SEC-MALS; full-length P0 in 0.1% LDAO micelles, Superdex 200, 250 mM sodium phosphate pH 8.0, 1 mM EDTA; protein conjugate analysis
protein,measurement,setting,value
B1,stoichiometry N,[1],4
same,stoichiometry N,[2],2

# Reference: PMC6345808, “Molecular structure and function of myelin protein P0 in membrane stacking” (Scientific Reports, 2019)
